Laboratory results taken from the supplement of paper PMC11246515.
± gives the standard deviation of the averaged measurements.

Test: total protein half-life in vivo (active degradation + dilution); higher = more stable protein
[1] = E. coli NCM3722 delta-clpP delta-lon delta-hslV, growth: N-lim chemostat, doubling time 6 h
[2] = E. coli NCM3722 delta-clpP, growth: N-lim chemostat, doubling time 6 h
[3] = wild type E. coli NCM3722, growth: C-lim chemostat, doubling time 3 h
[4] = wild type E. coli NCM3722, growth: C-lim chemostat, doubling time 6 h
[5] = wild type E. coli NCM3722, growth: C-lim chemostat, doubling time 12 h
[6] = E. coli NCM3722 delta-hslV, growth: N-lim chemostat, doubling time 6 h
[7] = E. coli NCM3722 delta-lon, growth: N-lim chemostat, doubling time 6 h
[8] = E. coli NCM3722 delta-smpB, growth: N-lim chemostat, doubling time 6 h
[9] = wild type E. coli NCM3722, growth: N-lim chemostat, doubling time 6 h
[10] = wild type E. coli NCM3722, growth: N-lim chemostat, doubling time 12 h
[11] = wild type E. coli NCM3722, growth: P-lim chemostat, doubling time 6 h
[12] = wild type E. coli NCM3722, growth: P-lim chemostat, doubling time 12 h

Row | Sequence | total protein half-life in vivo [1] | total protein half-life in vivo [2] | total protein half-life in vivo [3] | total protein half-life in vivo [4] | total protein half-life in vivo [5] | total protein half-life in vivo [6] | total protein half-life in vivo [7] | total protein half-life in vivo [8] | total protein half-life in vivo [9] | total protein half-life in vivo [10] | total protein half-life in vivo [11] | total protein half-life in vivo [12]
1 | METVAYADFARLEMRVGKIVEVKRHENADKLYIVQVDVGQKTLQTVTSLVPYYSEEELMGKTVVVLCNLQKAKMRGETSECMLLCAETDDGSESVLLTPERMMPAGVRVV | 5.14 ± 0.11 h | 5.33 h | 2.97 ± 0.48 h | 4.74 ± 0.58 h | 8.53 ± 0.87 h |  |  |  |  |  |  | 
2 | METYAVFGNPIAHSKSPFIHQQFAQQLNIEHPYGRVLAPINDFINTLNAFFSAGGKGANVTVPFKEEAFARADELTERAALAGAVNTLMRLEDGRLLGDNTDGVGLLSDLERLSFIRPGLRILLIGAGGASRGVLLPLLSLDCAVTITNRTVSRAEELAKLFAHTGSIQALSMDELEGHEFDLIINATSSGISGDIPAIPSSLIHPGIYCYDMFYQKGKTPFLAWCEQRGSKRNADGLGMLVAQAAHAFLLWHGVLPDVEPVIKQLQEELSA | 4 ± 0.39 h | 4.39 ± 0.89 h | 2.4 ± 0.59 h | 5.428 ± 0.014 h | 8.94 ± 2.3 h | 4.03 ± 0.27 h | 6.18 ± 2.5 h | 3.9 ± 0.14 h | 4.16 ± 0.36 h | 6.95 ± 0.015 h | 6.01 ± 0.18 h | 11.7 ± 1.5 h
3 | MEWIADPSIWAGLITLIVIELVLGIDNLVFIAILAEKLPPKQRDRARVTGLLLAMLMRLLLLASISWLVTLTQPLFSFRSFTFSARDLIMLFGGFFLLFKATMELNERLEGKDSNNPTQRKGAKFWGVVTQIVVLDAIFSLDSVITAVGMVDHLLVMMAAVVIAISLMLMASKPLTQFVNSHPTIVILCLSFLLMIGFSLVAEGFGFVIPKGYLYAAIGFSVMIEALNQLAIFNRRRFLSANQTLRQRTTEAVMRLLSGQKEDAELDAETASMLVDHGNQQIFNPQERRMIERVLNLNQRTVSSIMTSRHDIEHIDLNAPEEEIRQLLERNQHTRLVVTDGDDAEDLLGVVHVIDLLQQSLRGEPLNLRVLIRQPLVFPETLPLLPALEQFRNARTHFAFVVDEFGSVEGIVTLSDVTETIAGNLPNEVEEIDARHDIQKNADGSWTANGHMPLEDLVQYVPLPLDEKREYHTIAGLLMEYLQRIPKPGEEVQVGDYLLKTLQVESHRVQKVQIIPLRKDGEMEYEV | 6.68 ± 1.2 h | 6.24 ± 0.2 h |  |  | 14.9 ± 0.52 h | 6.92 ± 0.87 h | 6.34 ± 0.46 h | 6.27 ± 0.67 h | 6.24 ± 0.23 h | 12.28 ± 0.022 h | 6.598 ± 0.06 h | 11.1 ± 2 h
4 | MEYQHWLREAISQLQASESPRRDAEILLEHVTGRGRTFILAFGETQLTDEQCQQLDALLTRRRDGEPIAHLTGVREFWSLPLFVSPATLIPRPDTECLVEQALARLPEQPCRILDLGTGTGAIALALASERPDCEIIAVDRMPDAVSLAQRNAQHLAIKNIHILQSDWFSALAGQQFAMIVSNPPYIDEQDPHLQQGDVRFEPLTALVAADSGMADIVHIIEQSRNALVSGGFLLLEHGWQQGEAVRQAFILAGYHDVETCRDYGDNERVTLGRYYQ [P0ACC1] | 4.72 ± 1.1 h | 3.88 h |  | 5.5 ± 0.85 h | 9.85 h | 3.35 h | 4.15 ± 0.14 h | 3.23 h |  | 5.79 ± 0.26 h | 5.35 ± 0.41 h | 9.69 ± 0.87 h
5 | MEYQLTLNWPDFLERHWQKRPVVLKRGFNNFIDPISPDELAGLAMESEVDSRLVSHQDGKWQVSHGPFESYDHLGETNWSLLVQAVNHWHEPTAALMRPFRELPDWRIDDLMISFSVPGGGVGPHLDQYDVFIIQGTGRRRWRVGEKLQMKQHCPHPDLLQVDPFEAIIDEELEPGDILYIPPGFPHEGYALENAMNYSVGFRAPNTRELISGFADYVLQRELGGNYYSDPDVPPRAHPADVLPQEMDKLREMMLELINQPEHFKQWFGEFISQSRHELDIAPPEPPYQPDEIYDALKQGEVLVRLGGLRVLRIGDDVYANGEKIDSPHRPALDALASNIALTAENFGDALEDPSFLAMLAALVNSGYWFFEG | 5 ± 0.51 h | 5.08 ± 0.63 h | 3.12 ± 0.54 h | 5.25 ± 0.26 h | 10.1 ± 1 h | 4.45 ± 0.092 h | 4.25 ± 0.14 h | 4.63 ± 0.28 h | 4.6 ± 0.32 h | 8.11 ± 0.15 h | 6.71 ± 1.1 h | 13 ± 0.99 h
6 | MEYRSLTLDDFLSRFQLLRPQINRETLNHRQAAVLIPIVRRPQPGLLLTQRSIHLRKHAGQVAFPGGAVDDTDASAIAAALREAEEEVAIPPSAVEVIGVLPPVDSVTGYQVTPVVGIIPPDLPYRASEDEVSAVFEMPLAQALHLGRYHPLDIYRRGDSHRVWLSWYEQYFVWGMTAGIIRELALQIGVKP | 5.44 ± 0.41 h | 2.96 ± 0.13 h | 2.36 ± 0.8 h | 5.03 ± 0.89 h | 7.74 ± 0.73 h | 3.99 ± 0.25 h | 4.38 ± 0.51 h | 3.01 ± 0.22 h | 4 ± 0.21 h | 6.98 ± 0.38 h | 4.45 ± 0.2 h | 8.18 ± 0.56 h
7 | MFAVSSRRVLPGFTLSLGTSLLFVCLILLLPLSALVMQLAQMSWAQYWEVITNPQVVAAYKVTLLSAFVASIFNGVFGLLMAWILTRYRFPGRTLLDALMDLPFALPTAVAGLTLASLFSVNGFYGEWLAKFDIKVTYTWLGIAVAMAFTSIPFVVRTVQPVLEELGPEYEEAAETLGATRWQSFCKVVLPELSPALVAGVALSFTRSLGEFGAVIFIAGNIAWKTEVTSLMIFVRLQEFDYPAASAIASVILAASLLLLFSINTLQSRFGRRVVGH | 7.77 h | 6.57 h | 3.13 ± 0.25 h | 4.2551 ± 0.0035 h | 7.05 h | 4.7 h | 4.58 h | 2.4 h | 4.83 ± 0.59 h |  |  | 10.2 ± 1.2 h
